The nature of data set [1]: Net charge of self-assembling peptides in solution. The format is physicochemical. To be noted: for Net charge at pH 7.5: in solution at pH 7.5. The source says: Several exemplary self-assembling peptides described herein (Table 5; SEQ ID NO:21-40) were designed to have a net charge, positive or negative, when formulated at pH 7.5. In contrast, previously-described self-assembling peptides have a net zero charge at the same pH.

A short description of data set [2]: Appearance (solubility) of aqueous compositions at pH 2.5 and pH 7.5. In kind it is physicochemical. As for the experimental part: To determine the solubility of exemplary self-assembling peptides in aqueous pharmaceutical compositions formulated at acidic and neutral pH, the appearance of the pharmaceutical compositions was assessed. Homogenous and transparent appearance reflects sufficient solubility of the peptides in solution and minimal hydrogel formation. […] The appearance of exemplary self-assembling peptides at pH 2.5 and pH 7.5 is shown below in Table 6 and FIG. 20.

The next data set has as its system porcine esophagus mucosa. Put plainly: Submucosal injection in in vivo porcine esophagus. As for the experimental part: In another embodiment, mucosal aggregation visualized as white precipitate near the injection site was evaluated in an in vivo porcine esophagus.
The test system of a further data set is pig stomach submucosa. Nature of the data set: Submucosal injection in in vivo porcine model, stomach. To be noted: for Appearance of stomach mucosa / submucosal elevation after injection / submucosal elevation over time compared with saline and MucoUp: pH 7.5; for Appearance of stomach mucosa: 2 mL injected; for submucosal elevation after injection / submucosal elevation over time compared with saline and MucoUp: 2 mL of 0.1% (w/v) peptide, 0.9% NaCl, pig stomach. As for the experimental part:
An in vivo porcine animal model was used to perform endoscopic mucosal and submucosal dissections as described in Uraoka et al. (2009) Drug Des. Devel. Ther. 2:131-8, incorporated herein by reference. Briefly, 2 mL of select peptide formulations were injected in between the […] in stomach of a pig and the submucosa was dissected using electro-knife. The gross appearance of the injection site and of dissected submucosal tissues at the injection sites were analyzed. […] Therefore, an in vivo porcine model system was used to assess the ability of these compositions to induce submucosal elevation upon injection into gastrointestinal submucosa, and the degree of tissue damage. In this model, submucosal injections with liquid compositions were performed and the morphology of the site of injection analyzed. Submucosal injection with aqueous solutions is used during the excision of lesions from the gastrointestinal tract in order to facilitate removal of the lesion by providing a safety cushion during resection (see, e.g., Kim et al. (2013) World J. Gastroenterol. 19(20): 3069-76, incorporated herein by reference). Here, aqueous pharmaceutical compositions comprising three exemplary self-assembling peptides formulated at pH 7.5: KLNL12 (SEQ ID NO:21), NLKL12 (SEQ ID NO:23) or KIQI13 (SEQ ID NO:29), were compared to an aqueous pharmaceutical composition comprising the previously described RADA16 self-assembling peptide (formulated at pH 2.5), a 0.4% solution of sodium hyaluronate (MucoUp®, Boston Scientific Japan K.K., Tokyo, Japan), and saline, pH 7.5.

Data set [3] in a line: Frequency sweep test (storage modulus) before and after exposure to DMEM. To be noted: pH 7.5; for increase of mechanical strength after exposure to DMEM: 0.15% (w/v); for rheological properties (mechanical strength) before and after exposure to DMEM: 1% (w/v) peptide. The format is physicochemical. As to the method:
Peptides formulated as aqueous solutions were placed between the plates of a rheometer (DHR-1, TA Instruments, 20 mm plates at a measuring geometry of 500 μm or 40 mm cone and plate at a measuring geometry of 2.0° of cone angle) and frequency stress sweep tests were performed at 0.1 Hz to 10 Hz of frequency with 0.1% of strain; measurements were performed after 2 minutes of relaxation time at 37° C. To do frequency sweep tests after exposure to Dulbecco's Modified Eagle Medium (DMEM), 10 mL of DMEM was added in chamber surrounding the plates, the sample in plates was submerged into the DMEM and the frequency test was performed as described after 20 minutes.
Rheological properties of aqueous pharmaceutical compositions comprising the exemplary self-assembling peptides KLNL12 (SEQ ID NO:21), KIQI13 (SEQ ID NO:29), or NLEL12 (SEQ ID NO:33) were determined by performing a frequency sweep test over storage modulus.
In some embodiments, peptides formulated as aqueous solutions, volume 700 μl, were placed between the plates of a rheometer (DHR-1, TA Instruments, 40 mm cone and plate at a measuring geometry of 2.0° of cone angle) and frequency sweep tests were performed at 0.1 Hz to 10 Hz of frequency with 0.1% of strain; measurements were performed after 2 minutes of relaxation time at 37° C. In some embodiments, frequency sweep tests were performed after exposure to Dulbecco's Modified Eagle Medium (DMEM), where 10 mL of DMEM was added in chamber surrounding the plates, the sample in plates was submerged into the DMEM and the frequency test was performed as described after 20 minutes.

Data set [4] in a line: Viscosity determination at increasing shear rate (shear thinning). The format is physicochemical. To be noted: 1% (w/v) peptide, pH 7.5. As to the method: Peptides formulated as aqueous solutions (200 μL), were placed between the plates of a rheometer (DHR-1, TA Instruments, 20 mm plates at a measuring geometry of 500 μm) and the viscosity was measured from 0.001 s^−1 to 100 s^−1 shear rate. Thixotropic Measurements
In some clinical applications, administration of pharmaceutical compositions comprising self-assembling peptides requires exposing the compositions to pressure and/or shear thinning (e.g., during injection through a syringe needle or transferred via a pump-based system). […] To determine the shear thinning properties of pharmaceutical compositions of the self-assembling peptides formulated at pH 7.5, formulations comprising varying ionic strengths were prepared using different concentrations of sodium chloride, and viscosity measured at increasing shear rates. Thixotropic properties of formulations were also determined as well as the storage modulus over time at specific frequencies and pressure.
FIGS. 6-8 show the experimentally determined viscosity of aqueous pharmaceutical compositions comprising either 1% (w/v) KLNL12 (SEQ ID NO:21), 1% (w/v) IQIK13 (SEQ ID NO:28), or 1% (w/v) NLEL12 (SEQ ID NO:33), at pH 7.5. FIGS. 9 and 10 show the experimentally determined viscosity of aqueous pharmaceutical compositions comprising either 1% KLNL12 (SEQ ID NO:21) or 1% NLEL12 (SEQ ID NO:33), and 0.9% NaCl (to mimic physiological conditions) at pH 7.5. […] That is, decreased viscosity with increasing sheer rate. This property may advantageously facilitate application and use of the pharmaceutical compositions (e.g., due to decreased viscosity while pumping) while maintaining a desirable viscosity at a site of application (e.g., where no sheer force is being applied).

Setting [5] is: porcine esophagus, compositions of Table 9.

Entries after “also recorded” stand apart in the source; their conditions may differ. Peptide text beside a SMILES is read from it.

For the compound “Ac-RADARADARADARADA-NH2 [RADA16, reference compound]”, the “net charge as a function of pH” value in data set [1] (around neutral pH) was “about 0”. Besides, in data set [2], the “Appearance at different pH: At pH 7.5” value was “precipitates; also recorded: phase separation and cloudy appearance”. Moreover, the “mucosal aggregation at injection sites” value with porcine esophagus mucosa (pig, in vivo) is recorded as “Mucosal aggregation was observed”. Besides, the “Appearance of stomach mucosa” value in the data set on porcine esophagus mucosa (pig, in vivo, pH 2.5) is listed as “cloudy/aggregation”. The “period after injection until mucosal aggregation” value in the data set on pig stomach submucosa (pig, in vivo, pH 2.5) was in the range of 10 to 15 min.

On to Ac-LKLNLKLNLKLN-NH2 [LKLN12], for which, in data set [1], the “Net charge at pH 7.5” value was “+3”.

Consider `CC[C@H](C)[C@H](NC(=O)[C@H](CCC(N)=O)NC(=O)[C@@H](NC(=O)[C@H](CCCCN)NC(=O)[C@@H](NC(=O)[C@H](CCC(N)=O)NC(=O)[C@@H](NC(=O)[C@H](CCCCN)NC(=O)[C@@H](NC(=O)[C@H](CCC(N)=O)NC(=O)[C@@H](NC(=O)[C@H](CCCCN)NC(C)=O)[C@@H](C)CC)[C@@H](C)CC)[C@@H](C)CC)[C@@H](C)CC)[C@@H](C)CC)C(N)=O` [KIQI12, Ac-KIQIKIQIKIQI-NH2] (Ac-KIQIKIQIKIQI-NH2), for which the “Appearance of stomach mucosa” value is given as “cloudy/aggregation” in the data set with porcine esophagus mucosa (porcine esophagus, 0.1% (w/v) peptide with NaCl 0.9%, pH 7.5) and “do not appear to alter submucosal tissue morphology; also recorded: Clear/transparent” in the data set on pig stomach submucosa (0.1% (w/v) peptide with NaCl 0.9%). Further, in the data set with porcine esophagus mucosa (setting [5]), the “mucosal aggregation at injection sites” value is recorded as “Mucosal aggregation was observed”.

For Ac-LNLKLNLKLNLK-NH2 [LNLK12], the “Net charge at pH 7.5” value in data set [1] is “+3”.

As for Ac-IEIKIEIKIEIKI-NH2 [IEIK13], the “Appearance at different pH: At pH 7.5” value in data set [2] was “phase separation and cloudy appearance”.

Turning to “Ac-KLDLKLDLKLDL-NH2 [KLDL12, reference compound]”, the “Net charge at pH 7.5” value is given as 0 in data set [1] and “about zero” in data set [1] (listed as KLD12). Moreover, the “Appearance at different pH: At pH 7.5” value in data set [2] was “phase separation and cloudy appearance”.

As for Ac-INIKINIKINIKI-NH2 [INIK13], the “Net charge at pH 7.5” value in data set [1] was “+3”.

For the compound `CC(=O)N[C@@H](CCC(N)=O)C(=O)N[C@@H](CC(C)C)C(=O)N[C@@H](CCC(=O)O)C(=O)N[C@@H](CC(C)C)C(=O)N[C@@H](CCC(N)=O)C(=O)N[C@@H](CC(C)C)C(=O)N[C@@H](CCC(=O)O)C(=O)N[C@@H](CC(C)C)C(=O)N[C@@H](CCC(N)=O)C(=O)N[C@@H](CC(C)C)C(=O)N[C@@H](CCC(=O)O)C(=O)N[C@@H](CC(C)C)C(N)=O` [QLEL12, Ac-QLELQLELQLEL-NH2] (Ac-QLELQLELQLEL-NH2), in data set [3] (0.1% to 0.3% (w/v), 0.9% NaCl), the “rheological property versus peptide concentration” value was “linear relationship”. In addition, the “increase of mechanical strength after exposure to DMEM” value in data set [3] (0.9% NaCl, frequency 0.1 Hz) came to 23 fold; in data set [3] (0.9% NaCl, frequency 1 Hz), 20 fold; in data set [3] (0.9% NaCl, frequency 10 Hz), 9 fold. Also, the “Appearance of stomach mucosa” value was “clear/transparent” in the data set on porcine esophagus mucosa (porcine esophagus, 0.2% (w/v) peptide with NaCl 0.9%, pH 7.5) and “no mucosal aggregation was observed; also recorded: do not appear to alter submucosal tissue morphology; also recorded: clear/transparent” with pig stomach submucosa (0.2% (w/v) peptide with NaCl 0.9%). In addition, the “mucosal aggregation at injection sites” value in the data set with porcine esophagus mucosa (setting [5]) is recorded as “mucosal aggregation was not observed”.

In the case of Ac-QIKIQIKIQIKIQ-NH2 [QIKI13], in data set [1], the “Net charge at pH 7.5” value is listed as “+3”.

In the case of Ac-KLNLKLNLKLNLK-NH2 [KLNL13], the “Net charge at pH 7.5” value in data set [1] is on record as “+4”.

On to Ac-KLNLKLNLKLNLKLNLK-NH2 [KLNL17], for which the “Net charge at pH 7.5” value in data set [1] is reported as “+5”.

Regarding Ac-IKIQIKIQIKIQI-NH2 [IKIQ13], the “Net charge at pH 7.5” value in data set [1] is recorded as “+3”.

In the case of Ac-KVNVKVNVKVNV-NH2 [KVNV12], the “Net charge at pH 7.5” value in data set [1] is on record as “+3”.

Take Ac-NLKLNLKLNLKL-NH2 [NLKL12]: the “Net charge at pH 7.5” value in data set [1] is “+3”. In addition, in the data set with pig stomach submucosa, the “submucosal elevation after injection” value was “resulted in submucosal elevation”; the “submucosal elevation over time compared with saline and MucoUp” value is “better submucosal elevation than saline and MucoUp®”.

As to Ac-KIQIKIQIKIQIK-NH2 [KIQI13], the “rheological properties (mechanical strength) before and after exposure to DMEM” value in data set [3] (0.9% NaCl) is listed as “increased after DMEM treatment”. Also, in data set [3], the “rheological properties (mechanical strength) before and after exposure to DMEM” value is given as “increased after DMEM treatment”. Moreover, in data set [1], the “Net charge at pH 7.5” value was “+4”. In the data set with pig stomach submucosa, the “submucosal elevation after injection” value was “resulted in submucosal elevation”; the “submucosal elevation over time compared with saline and MucoUp” value was “better submucosal elevation than saline and MucoUp®”.

As to Ac-RANARANARANARANA-NH2 [RANA16], in data set [1], the “Net charge at pH 7.5” value is listed as “+4”.

As for Ac-KANAKANAKANA-NH2 [KANA12], the “Net charge at pH 7.5” value in data set [1] is “+3”.

As for Ac-IQIKIQIKIQIKI-NH2 [IQIK13], in data set [4], the “viscosity in response to increasing shear rate” value is recorded as “exhibit sheer thinning”. In data set [1], the “Net charge at pH 7.5” value was “+3”.

In the case of Ac-NLDLNLDLNLDL-NH2 [NLDL12], the “Net charge at pH 7.5” value in data set [1] was −3.

Ac-IQIKIQIKIQIK-NH2 [IQIK12]: the “Net charge at pH 7.5” value in data set [1] is listed as “+3”.

In the case of `CC(=O)N[C@@H](CC(C)C)C(=O)N[C@@H](CCC(=O)O)C(=O)N[C@@H](CC(C)C)C(=O)N[C@@H](CCC(N)=O)C(=O)N[C@@H](CC(C)C)C(=O)N[C@@H](CCC(=O)O)C(=O)N[C@@H](CC(C)C)C(=O)N[C@@H](CCC(N)=O)C(=O)N[C@@H](CC(C)C)C(=O)N[C@@H](CCC(=O)O)C(=O)N[C@@H](CC(C)C)C(=O)N[C@@H](CCC(N)=O)C(N)=O` [LELQ12, Ac-LELQLELQLELQ-NH2] (Ac-LELQLELQLELQ-NH2), the “mucosal aggregation at injection sites” value in the data set with porcine esophagus mucosa (pig, in vivo) is listed as “mucosal aggregation was not observed”. Further, the “Appearance of stomach mucosa” value in the data set on porcine esophagus mucosa (pig, in vivo, pH 7.5) is listed as “clear/transparent”.

Consider Ac-KLTLKLTLKLTL-NH2 [KLTL12], for which the “Net charge at pH 7.5” value in data set [1] is “+3”.

The record behind these values is patent publication US12611439B2, “Ionic self-assembling peptides” (3-D MATRIX, LTD., priority 2018, dated 2026).
